Target: MTS-LOV2^V416L (membrane-anchored Light-oxygen-voltage-sensing domain 2, V416L variant)

12xCSL-Luc luciferase reporter (RLU) in HEK293T cells, 48 h after blue light activation (0.05-s pulses for 1, 3 and 12 h), against LOV2^WT: 5 fold
Substance: Zdk1-N1ICD (Zdark 1 fused to the human NOTCH1 intracellular domain) (designed binder)

From paper PMC9118860
